Measurements from the RNAGym collection of RNA variant scans (doi:10.7554/elife.90254).

B1: LINE1-full (parent)
chain: UACGUAGGUGGUUUUCCCCUGAUAGUGCUAAGGGGGCCUGGAAGUUUGGACUGGGCAGAGCUCAACACAGCGUGGCAAAGUGGCUGUGGCUAGACUGCCUCUCUGGAUUCCUCGUCACUCAGCAGGGCAUCUCUGAGAGAAAUGCC

Variants of: B1
Experiment: self-cleavage, relative activity (ratio to wild type); higher = more cleavage; in vitro, sequencing; the parent is a self-cleaving ribozyme

**Q.** For A42G A78G, which self-cleavage is on record?
**A.** Its self-cleavage is 1.49.

**Q.** With A42G A79G as the variant, how does the self-cleavage read?
**A.** Its self-cleavage is 1.37.

**Q.** For A42G A79U, which self-cleavage is on record?
**A.** The self-cleavage was 1.57.

**Q.** With A42G A92G as the variant, how does the self-cleavage read?
**A.** The self-cleavage was 0.15.

**Q.** Which self-cleavage does the source give for A42G A92U here?
**A.** The self-cleavage was 0.72.

**Q.** With A42G A117U as the variant, how does the self-cleavage read?
**A.** Its self-cleavage is 1.33.

**Q.** For A42G A121C, which self-cleavage is on record?
**A.** The self-cleavage was 0.84.

**Q.** With A42G A124U as the variant, how does the self-cleavage read?
**A.** Its self-cleavage is 1.35.

**Q.** Which self-cleavage does the source give for A42G A129C here?
**A.** Its self-cleavage is 2.1.

**Q.** Which self-cleavage does the source give for A42G A129U here?
**A.** Its self-cleavage is 1.75.

**Q.** For A42G A138G, which self-cleavage is on record?
**A.** The self-cleavage was 1.34.

**Q.** Which self-cleavage does the source give for A42G A138U here?
**A.** The self-cleavage was 1.6.

**Q.** For A42G A140C, which self-cleavage is on record?
**A.** The self-cleavage was 0.93.

**Q.** For A42G A140G, which self-cleavage is on record?
**A.** The self-cleavage was 1.46.

**Q.** Which self-cleavage does the source give for A42G A140U here?
**A.** Its self-cleavage is 1.2.

**Q.** For A42G C51U, which self-cleavage is on record?
**A.** Its self-cleavage is 1.28.

**Q.** With A42G C56U as the variant, how does the self-cleavage read?
**A.** Its self-cleavage is 0.26.

**Q.** For A42G C68U, which self-cleavage is on record?
**A.** The self-cleavage was 0.18.

**Q.** For A42G C84A, which self-cleavage is on record?
**A.** The self-cleavage was 0.15.

**Q.** For A42G C95U, which self-cleavage is on record?
**A.** The self-cleavage was 0.2.

**Q.** Which self-cleavage does the source give for A42G C98U here?
**A.** Its self-cleavage is 0.53.

**Q.** With A42G C99A as the variant, how does the self-cleavage read?
**A.** Its self-cleavage is 0.94.

**Q.** With A42G C101U as the variant, how does the self-cleavage read?
**A.** Its self-cleavage is 1.75.

**Q.** Which self-cleavage does the source give for A42G C103A here?
**A.** Its self-cleavage is 1.49.

**Q.** Which self-cleavage does the source give for A42G C111U here?
**A.** Its self-cleavage is 1.37.

**Q.** With A42G C120A as the variant, how does the self-cleavage read?
**A.** The self-cleavage was 1.54.

**Q.** Which self-cleavage does the source give for A42G C120U here?
**A.** The self-cleavage was 0.67.

**Q.** Which self-cleavage does the source give for A42G C131A here?
**A.** The self-cleavage was 1.23.

**Q.** For A42G C133A, which self-cleavage is on record?
**A.** Its self-cleavage is 1.59.

**Q.** For A42G C145U, which self-cleavage is on record?
**A.** The self-cleavage was 1.26.

**Q.** With A42G C146G as the variant, how does the self-cleavage read?
**A.** Its self-cleavage is 0.45.

**Q.** For A42G C146U, which self-cleavage is on record?
**A.** The self-cleavage was 1.18.

**Q.** Which self-cleavage does the source give for A42G G48A here?
**A.** The self-cleavage was 0.85.

**Q.** Which self-cleavage does the source give for A42G G53A here?
**A.** The self-cleavage was 1.36.

**Q.** For A42G G55A, which self-cleavage is on record?
**A.** Its self-cleavage is 0.29.

**Q.** For A42G G58A, which self-cleavage is on record?
**A.** The self-cleavage was 0.

**Q.** With A42G G72A as the variant, how does the self-cleavage read?
**A.** Its self-cleavage is 1.11.

**Q.** With A42G G72U as the variant, how does the self-cleavage read?
**A.** The self-cleavage was 1.38.

**Q.** With A42G G80A as the variant, how does the self-cleavage read?
**A.** The self-cleavage was 2.61.

**Q.** For A42G G114A, which self-cleavage is on record?
**A.** Its self-cleavage is 1.48.

**Q.** Which self-cleavage does the source give for A42G G125A here?
**A.** Its self-cleavage is 1.25.

**Q.** Which self-cleavage does the source give for A42G G127A here?
**A.** Its self-cleavage is 1.04.

**Q.** With A42G G144U as the variant, how does the self-cleavage read?
**A.** Its self-cleavage is 1.65.

**Q.** With A42G U45A as the variant, how does the self-cleavage read?
**A.** Its self-cleavage is 1.4.

**Q.** For A42G U45G, which self-cleavage is on record?
**A.** Its self-cleavage is 0.1.

**Q.** With A42G U46C as the variant, how does the self-cleavage read?
**A.** The self-cleavage was 1.49.

**Q.** Which self-cleavage does the source give for A42G U47A here?
**A.** The self-cleavage was 1.19.

**Q.** For A42G U52A, which self-cleavage is on record?
**A.** The self-cleavage was 1.52.

**Q.** With A42G U52C as the variant, how does the self-cleavage read?
**A.** Its self-cleavage is 1.17.

**Q.** For A42G U62A, which self-cleavage is on record?
**A.** The self-cleavage was 0.06.

**Q.** For A42G U73A, which self-cleavage is on record?
**A.** Its self-cleavage is 1.52.

**Q.** Which self-cleavage does the source give for A42G U81A here?
**A.** Its self-cleavage is 2.11.

**Q.** With A42G U81C as the variant, how does the self-cleavage read?
**A.** Its self-cleavage is 1.55.

**Q.** With A42G U85C as the variant, how does the self-cleavage read?
**A.** The self-cleavage was 0.38.

**Q.** With A42G U85G as the variant, how does the self-cleavage read?
**A.** Its self-cleavage is 0.26.

**Q.** For A42G U96A, which self-cleavage is on record?
**A.** Its self-cleavage is 0.03.

**Q.** Which self-cleavage does the source give for A42G U100A here?
**A.** The self-cleavage was 1.28.

**Q.** With A42G U100C as the variant, how does the self-cleavage read?
**A.** Its self-cleavage is 1.54.

**Q.** Which self-cleavage does the source give for A42G U102A here?
**A.** The self-cleavage was 1.38.

**Q.** Which self-cleavage does the source give for A42G U104G here?
**A.** The self-cleavage was 0.8.

**Q.** With A42G U108C as the variant, how does the self-cleavage read?
**A.** The self-cleavage was 1.55.

**Q.** For A42G U109A, which self-cleavage is on record?
**A.** The self-cleavage was 1.43.

**Q.** Which self-cleavage does the source give for A42G U109C here?
**A.** Its self-cleavage is 1.24.

**Q.** Which self-cleavage does the source give for A42G U109G here?
**A.** The self-cleavage was 0.66.

**Q.** With A42G U112A as the variant, how does the self-cleavage read?
**A.** Its self-cleavage is 2.01.

**Q.** For A42G U115A, which self-cleavage is on record?
**A.** Its self-cleavage is 1.24.

**Q.** With A42G U119A as the variant, how does the self-cleavage read?
**A.** Its self-cleavage is 0.95.

**Q.** Which self-cleavage does the source give for A42G U130A here?
**A.** The self-cleavage was 1.47.

**Q.** For A42G U130C, which self-cleavage is on record?
**A.** Its self-cleavage is 1.57.

**Q.** With A42G U132A as the variant, how does the self-cleavage read?
**A.** The self-cleavage was 1.8.

**Q.** With A42G U132C as the variant, how does the self-cleavage read?
**A.** Its self-cleavage is 1.48.

**Q.** Which self-cleavage does the source give for A42G U134A here?
**A.** The self-cleavage was 0.93.

**Q.** With A42G U134G as the variant, how does the self-cleavage read?
**A.** The self-cleavage was 1.68.

**Q.** Which self-cleavage does the source give for A42U A43G here?
**A.** Its self-cleavage is 1.51.

**Q.** Which self-cleavage does the source give for A42U A43U here?
**A.** The self-cleavage was 0.84.

**Q.** For A42U A57G, which self-cleavage is on record?
**A.** Its self-cleavage is 0.63.

**Q.** With A42U A57U as the variant, how does the self-cleavage read?
**A.** The self-cleavage was 0.04.

**Q.** Which self-cleavage does the source give for A42U A64G here?
**A.** The self-cleavage was 0.14.

**Q.** For A42U A69C, which self-cleavage is on record?
**A.** The self-cleavage was 0.02.

**Q.** For A42U A77G, which self-cleavage is on record?
**A.** Its self-cleavage is 1.72.

**Q.** With A42U A77U as the variant, how does the self-cleavage read?
**A.** Its self-cleavage is 0.83.

**Q.** For A42U A79G, which self-cleavage is on record?
**A.** Its self-cleavage is 1.16.

**Q.** For A42U A94G, which self-cleavage is on record?
**A.** Its self-cleavage is 0.24.

**Q.** With A42U A94U as the variant, how does the self-cleavage read?
**A.** The self-cleavage was 0.15.
